This is an account of results in publication PMC10828781, “Genome variation and LTR-RT analyses of an ancient peach landrace reveal mechanism of blood-flesh fruit color formation and fruit maturity date advancement”.

The target of this data set is PpBL (Prunus persica, UniProt M5WDM1 1-437). The data set can be described thus: EMSA; 5x, 10x, 50x competitor probe; EMSA: room temperature 30 min, 6% native PAGE in 0.5x TBE at 4 C, 60 V 1 h, binding buffer not stated; pull-down: 1 ug DNA-bead complex with 300 ul nuclear proteins, 20 min room temperature. The settings on record: protein: recombinant; (pGEX-6p-1 vector); label: biotin. A general note: Mobility shift assays separate free from complexed probe on a gel.
Chain of PpBL (M5WDM1 entry or part of it): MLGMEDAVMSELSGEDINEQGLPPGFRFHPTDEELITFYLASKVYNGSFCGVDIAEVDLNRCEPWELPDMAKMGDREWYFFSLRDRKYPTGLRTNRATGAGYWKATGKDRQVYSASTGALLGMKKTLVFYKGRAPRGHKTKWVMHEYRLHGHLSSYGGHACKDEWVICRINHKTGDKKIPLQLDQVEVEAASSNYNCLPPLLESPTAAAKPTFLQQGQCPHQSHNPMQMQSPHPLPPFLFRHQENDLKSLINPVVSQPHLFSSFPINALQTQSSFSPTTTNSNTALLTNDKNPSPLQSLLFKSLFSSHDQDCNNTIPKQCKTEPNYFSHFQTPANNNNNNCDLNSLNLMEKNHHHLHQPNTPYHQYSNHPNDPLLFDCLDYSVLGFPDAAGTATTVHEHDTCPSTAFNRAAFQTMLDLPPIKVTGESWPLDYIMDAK

B1: PpACO1 promoter probe (dsDNA)
DNA 1: ACAGTAATTTGCTTGCTTTC
DNA 2: GAAAGCAAGCAAATTACTGT
As to B1, the binding result was “binds”.

B2: PpACS1 promoter probe (dsDNA)
DNA 1: TACAACACGCAAGCAATTAC
DNA 2: GTAATTGCTTGCGTGTTGTA
Regarding B2, the binding result was “binds”.
